# Experimental data reported in patent US20240166754A1 (SYNTHEKINE, published 2024).
# Biological target: T1, extracellular domain of human IL12RB1 (hIL12Rb1 ECD antigen) (human, UniProt P42701 24-545)
# T1 construct: also called IL12Rβ1; CD212
# Experiment: periplasmic extract ELISA on antigen-coated plate after phage biopanning
# Method: Upon completion of the biopanning of Example 3, three 96-well plates of individual phage clones were isolated in order to perform periplasmic extract ELISA (PE-ELISA) on IL12Rb1 coated plates to identify positive VHH binders that selectively bound IL12Rb1. A 96-well plate was coated with IL12Rb1 and PBS under the same conditions. Next, wells were blocked at 37° ° C. for 1 h. Then, 100 μl of extracted antibodies was added to each well and incubated for 1 h. Subsequently, 100 μl of anti-tag polyclonal antibody conjugated to HRP was added to each well and incubated at 37 °C for 1 h. Plates were developed with TMB substrate. The reaction was stopped by the addition of H2SO4. Absorbance at 450 nm was read on a microtiter plate reader. Antibodies with absorbance of the antigen-coated well at least threefold greater than PBS-coated control are VHHs that specifically bind to IL12Rb1. Positive clones were sequenced, and sequences analyzed to identify unique clonotypes.
row,Binder,binding result
1,"hIL12Rb1_VHH3 (VHH, Camel VHH) VHH: QVQLQESGGGSVQAGGSLRLSCVASGYSYCGYDMMWYRQAPGKEREFVALITSDYSIRYEDSVEGRFSISRDNAKNTGYLLMSNLTPADTAIYYCKTSTAARESSWCRSRYRVASWGQGTQVTVSS",binds
2,"hIL12Rb1_VHH8 (VHH, Camel VHH) VHH: QVQLQESGGGSVQAGGSLRLSCVASGYSYCGYDMMWYRQAPGKEREFVALITSDYSIRYEDSVEGRFSISRDNAKNTGYLLMSNLTPADTAIYYCKTSTAARESSWCRSRYRVASWGQGTQVTVSS",binds
3,"hIL12Rb1_VHH9 (VHH, Camel VHH) VHH: QVQLQESGGGSVQAGGSLRLSCVASGYSYCGYDMMWYRQAPGKEREFVALITSDYSIRYEDSVEGRFSISRDNAKNTGYLLMSNLTPADTAIYYCKTSTAARESGWCRSRYRVASWGQGTQVTVSS",binds
4,"hIL12Rb1_VHH4 (VHH, Camel VHH) VHH: QVQLQESGGGSVQAGGSLRLSCVASGYGYCGYDMSWYRQTPGKEREFVALITSDRIASYEDSVKGRFIISRDNAKNTGYLDMTRVTPDDTAIYYCKTSAAARENSWCRSRYRVASWGQGTQVTVSS",binds
5,"hIL12Rb1_VHH13 (VHH, Camel VHH) VHH: QVQLQESGGGSVQAGGFLRLSCVASGYGYCGYDMSWYRQAPGKEREFVALITSERVISYEDSVKGRFSISRDNAENTGYLEMNRLTPDDTAIYYCKTSAAARESSWCRSRYRVASWGQGTQVTVSS",binds
6,"hIL12Rb1_VHH5 (VHH, Camel VHH) VHH: QVQLQESGGGSVQAGGFLRLSCVASGYGYCGYDMSWYRQVPGKEREFVALITSDRSVSYEDSVKGRFSISRDNAKNTAYLEMNRLTPDDTAVYYCKTSTAARENNWCRSRYRIAYWGQGTQVTVSS",binds
7,"hIL12Rb1_VHH6 (VHH, Camel VHH) VHH: QVQLQESGGGSVQAGGSLRLSCAASRYTYTNNFMAWFRQAPGKEREGVAAIYTGDGYAYYFYSVKGRFTISQDNDENMLYLQMNSLKPEDTAMYYCAAMERRIGTRRMTENAEYKYWGQGTQVTVSS",binds
8,"hIL12Rb1_VHH18 (VHH, Camel VHH) VHH: QVQLQESGGGSVQAGGSLRLSCAASRYTYTNNFMAWFRQAPGKEREGVAAIYTGDGYAYYFDSVKGRFTISQDNDKNMLYLQMNSLKPEDTAMYYCAAMERRSGRRRMTENAEYKYWGQGTQVTVSS",binds
